System: A431 cells
Assay: Adhesion of A431 cells to the substrate, cells removed when the culture dish was shaken (Example 2)
Assay type: cell-based
Details: 1 pmol/ml, 96-well culture dish
Protocol: FIG. 2 is a graph showing the results of Example 2 of the present application. The numerical value of the vertical axis indicates the number of cells removed from the bottom surface when a culture dish was shaken.
A portion in the entire-length F9 (F9(47-471)), which has an activity of inducing spread of cells on a substrate, was determined using an ability to adhere to the substrate as an indicator. […] Thereafter, an F9 portion having an action to inhibit the aforementioned inhibitory action was examined under conditions in which a culture was performed at 37° C. for 24 hours and the culture dish was then shaken on a shaker. It is to be noted that F9(47-191) is a peptide consisting of amino acids at positions 47 to 191 in the amino acid sequence shown in SEQ ID NO: 8, and that F9(192-202) is a peptide consisting of amino acids at positions 192 to 202 in the amino acid sequence shown in SEQ ID NO: 8. […] Each of the numerical values (on the vertical axis) in the graph of FIG. 2 is indicated as a mean±SD (**: P<0.01). In addition, in FIG. 2, the term “47-191” indicates the conditions in which F9(47-191) was added, and the terms “47-471,” “192-236,” “192-216,” and “192-202” indicate the results obtained in the case of adding F9(47-471), F9(192-236), F9(192-216), and F9(192-202), respectively.

B1: F9(47-191): peptide consisting of amino acids at positions 47 to 191 of SEQ ID NO: 8 (mouse F9) (protein, listed as Mus musculus)
chain: YNSGKLEEFVRGNLERECIEERCSFEEAREVFENTEKTTEFWKQYVDGDQCESNPCLNGGICKDDISSYECWCQVGFEGRNCELDATCNIKNGRCKQFCKNSPDNKVICSCTEGYQLAEDQKSCEPTVPFPCGRASISYSSKKIT
Q: With B1 as the molecule, how does the “action on adhesion between the cells and the substrate” value read?
A: The value was “action to inhibit adhesion between the cells and the substrate”.
